Results as given in US20110318789A1 (CAMBRIDGE ENTERPRISE, published 2011).

B1: Mt-Ku (Mycobacterium tuberculosis Ku-like protein, ORF Rv0937c), recombinant histidine-tagged (other)
chain: MRAIWTGSIAFGLVNVPVKVYSATADHDIRFHQVHAKDNGRIRYKRVCEACGEVVDYRDLARAYESGDGQMVAITDDDIASLPEERSREIEVLEFVPAADVDPMMFDRSYFLEPDSKSSKSYVLLAKTLAETDRMAIVHFTLRNKTRLAALRVKDFGKREVMMVHTLLWPDEIRDPDFPVLDQKVEIKPAELKMAGQVVDSMADDFNPDRYHDTYQEQLQELIDTKLEGGQAFTAEDQPRLLDEPEDVSDLLAKLEASVKARSKANSNVPTPP

Columns and labels:
[1] = molecular target: Mt-Lig expressed in yeast as amino-terminal Myc epitope-NLS fusion protein (pNLS16) (Mycobacterium tuberculosis) (UniProt P9WNV3); test: cell-based or functional assay
[2] = molecular target: Mt-Lig (Mycobacterium tuberculosis ATP-dependent ligase, ORF Rv0938), recombinant histidine-tagged (Mycobacterium tuberculosis, UniProt P9WNV3 1-759); test: cell-based or functional assay
Chain of Mt-Lig (Mycobacterium tuberculosis ATP-dependent ligase, ORF Rv0938), recombinant histidine-tagged (P9WNV3 whole entry): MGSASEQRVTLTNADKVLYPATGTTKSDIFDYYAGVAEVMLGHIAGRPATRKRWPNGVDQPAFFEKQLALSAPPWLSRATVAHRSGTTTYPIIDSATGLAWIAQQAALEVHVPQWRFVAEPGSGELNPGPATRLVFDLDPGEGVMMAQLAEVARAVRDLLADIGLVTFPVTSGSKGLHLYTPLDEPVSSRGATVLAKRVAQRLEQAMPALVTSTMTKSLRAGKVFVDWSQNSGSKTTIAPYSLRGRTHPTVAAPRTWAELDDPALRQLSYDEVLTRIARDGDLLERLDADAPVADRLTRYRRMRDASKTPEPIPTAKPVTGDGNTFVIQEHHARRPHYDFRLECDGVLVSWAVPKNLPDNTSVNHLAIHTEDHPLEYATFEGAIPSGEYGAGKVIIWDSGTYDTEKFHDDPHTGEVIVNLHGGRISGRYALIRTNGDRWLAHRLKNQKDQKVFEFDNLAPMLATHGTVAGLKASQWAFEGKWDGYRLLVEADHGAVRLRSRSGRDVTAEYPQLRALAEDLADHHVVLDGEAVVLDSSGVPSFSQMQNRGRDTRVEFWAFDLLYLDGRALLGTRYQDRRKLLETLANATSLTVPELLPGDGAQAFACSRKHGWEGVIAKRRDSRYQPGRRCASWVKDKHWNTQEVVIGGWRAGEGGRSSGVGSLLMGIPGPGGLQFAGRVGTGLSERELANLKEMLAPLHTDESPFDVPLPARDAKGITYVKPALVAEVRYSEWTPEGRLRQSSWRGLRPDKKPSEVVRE

Chain of Mt-Lig expressed in yeast as amino-terminal Myc epitope-NLS fusion protein (pNLS16) (Mycobacterium tuberculosis) (P9WNV3 whole entry, the tested form may be a part): as the sequence (P9WNV3 whole entry) above

Molecule	NHEJ frequency in yku70 mutant yeast (suicide deletion assay) (% of the wild-type yeast level) [1]	DNA ligation activity of Mt-Lig on dsDNA fragments upon addition of Mt-Ku [2] [fold]	activity of Mt-Lig in an in vitro plasmid repair assay [2] [fold]
Mt-Ku expressed in yeast as amino-terminal Myc epitope-NLS fusion protein (pNLS15) (from UniProt P9WKD8 1-273)	50	–	–
B1	–	> 30	20
